Measured values: paper PMC6957489

Assays:
[1] = biological target: t-SNARE heterodimer with syntaxin-1A labeled at position 241 with cy5 (C-C FRET pair) (rat) (UniProt P32851); test: FRET or BRET; single-molecule FRET (prism-based TIRF, 100-ms resolution) between cy3-syb2 in v-SNARE 13 nm nanodiscs (ND1) and cy5-syntaxin-1A in t-SNARE nanodiscs; NDs (5 µM) incubated at room temperature 30 min, diluted to 10 pM; no syt1; with EGTA or 500 µM free Ca2+ (Ca2+ had no effect); 100 mM KCl, 25 mM HEPES pH 7.4
[2] = biological target: t-SNARE heterodimer with syntaxin-1A labeled at position 241 with cy5 (C-C FRET pair) (rat) (UniProt P32851); test: FRET or BRET; single-molecule FRET as above, with full-length syt1 co-reconstituted in the v-SNARE nanodisc; values in the absence of Ca2+ (EGTA); subsequent Ca2+ (500 µM free) had only subtle effects, with an increase in the highest C-C FRET peak
[3] = biological target: t-SNARE heterodimer with syntaxin-1A labeled at position 203 with cy5 (N-N FRET pair) (rat) (UniProt P32851); test: FRET or BRET; single-molecule FRET (prism-based TIRF, 100-ms resolution) between cy3-syb2 in v-SNARE 13 nm nanodiscs (ND1) and cy5-syntaxin-1A in t-SNARE nanodiscs; NDs (5 µM) incubated at room temperature 30 min, diluted to 10 pM; no syt1; with EGTA or 500 µM free Ca2+ (Ca2+ had no effect); 100 mM KCl, 25 mM HEPES pH 7.4

| Substance | FRET ratio (R), peak of the distribution, C-C pair [1] | FRET ratio (R), C-C pair, first of three states (with apo-syt1) [2] | FRET ratio (R), C-C pair, second of three states (with apo-syt1) [2] | FRET ratio (R), C-C pair, third of three states (with apo-syt1) [2] | FRET ratio (R), peak of the distribution, N-N pair [3] |
| --- | --- | --- | --- | --- | --- |
| syb2 labeled at position 72 with cy3 (C-C FRET pair) (from UniProt P63045 1-116) (natural protein) | 0.2 | 0.2 | 0.5 | 0.7 |  |
| syb2 labeled at position 33 with cy3 (N-N FRET pair) (from UniProt P63045 1-116) (natural protein) |  |  |  |  | 0.7 |
